Data set [1] deals with the molecule itself. Put plainly: native gel or EMSA; 35S-labelled σNS expressed in rabbit reticulocyte lysate, incubated with 10 μg RNase A at 37°C for 1 h; blue native PAGE, 4-16% bis-Tris, 4°C; autoradiography. For orientation: Mobility shift assays separate free from complexed probe on a gel.
Data set [2] deals with the molecule itself. Put plainly: native gel or EMSA; 35S-labelled σNS expressed in rabbit reticulocyte lysate, incubated without RNase A (125 mM NaCl) at 37°C for 1 h; blue native PAGE, 4-16% bis-Tris, 4°C; autoradiography; RNA of the lysate present, the ladders of oligomers are RNA-dependent.

B1: reovirus nonstructural protein σNS, wild type, in vitro expressed (natural protein)
chain: MASSLRAAISKIKRDDVGQQVCPNYVMLRSSVTTKVVRNVVEYQIRTGGFFSCLAMLRPLQYAKRERLLGQRNLERISTRDILQTRDLHSLCMPTPDAPMSNHQASTMRELICSYFKVDHADGLKYIPMDERYSPSSLARLFTMGMAGLHITTEPSYKRVPIMHLAADLDCMTLALPYMITLDGDTVVPVAPTLSAEQLLDDGLKGLACMDISYGCEVDANSRPAGDQSMDSSRCINELYCEETAEAICVLKTCLVLNCMQFKLEMDDLAHNAAELDKIQMMIPFSERVFRMASSFATIDAQCFRFCVMMKDKNLKIDMRETTRLWTRSASDDSVATSSLSISLDRGRWVAADASDARLLVFPIRV
modifications: [35S]methionine-labelled
notes: nonstructural protein σNS of mammalian orthoreovirus (reovirus) strain T3D, S3 gene; same plasmid as m1, expressed in reticulocyte lysate; also called WT σNS; source: in vitro translated (TNT T7 polymerase-coupled rabbit reticulocyte lysate), not purified
Consider B1, for which the figures for the “stoichiometry N” value in data set [1] and in data set [2] were 2 and at least 6, respectively.

B2: σNS K35A, in vitro expressed (natural protein)
chain: MASSLRAAISKIKRDDVGQQVCPNYVMLRSSVTTAVVRNVVEYQIRTGGFFSCLAMLRPLQYAKRERLLGQRNLERISTRDILQTRDLHSLCMPTPDAPMSNHQASTMRELICSYFKVDHADGLKYIPMDERYSPSSLARLFTMGMAGLHITTEPSYKRVPIMHLAADLDCMTLALPYMITLDGDTVVPVAPTLSAEQLLDDGLKGLACMDISYGCEVDANSRPAGDQSMDSSRCINELYCEETAEAICVLKTCLVLNCMQFKLEMDDLAHNAAELDKIQMMIPFSERVFRMASSFATIDAQCFRFCVMMKDKNLKIDMRETTRLWTRSASDDSVATSSLSISLDRGRWVAADASDARLLVFPIRV
modifications: [35S]methionine-labelled
notes: nonstructural protein σNS of mammalian orthoreovirus (reovirus) strain T3D, S3 gene; same plasmid as m8; also called K35A σNS; source: in vitro translated (TNT T7 polymerase-coupled rabbit reticulocyte lysate), not purified
In the case of B2, in data set [2], the stoichiometry N (usually the number of molecules, sites or subunits per partner or assembly) was 2.

B3: σNS R6A, in vitro expressed (natural protein)
chain: MASSLAAAISKIKRDDVGQQVCPNYVMLRSSVTTKVVRNVVEYQIRTGGFFSCLAMLRPLQYAKRERLLGQRNLERISTRDILQTRDLHSLCMPTPDAPMSNHQASTMRELICSYFKVDHADGLKYIPMDERYSPSSLARLFTMGMAGLHITTEPSYKRVPIMHLAADLDCMTLALPYMITLDGDTVVPVAPTLSAEQLLDDGLKGLACMDISYGCEVDANSRPAGDQSMDSSRCINELYCEETAEAICVLKTCLVLNCMQFKLEMDDLAHNAAELDKIQMMIPFSERVFRMASSFATIDAQCFRFCVMMKDKNLKIDMRETTRLWTRSASDDSVATSSLSISLDRGRWVAADASDARLLVFPIRV
modifications: [35S]methionine-labelled
notes: nonstructural protein σNS of mammalian orthoreovirus (reovirus) strain T3D, S3 gene; same plasmid as m2; also called R6A σNS; source: in vitro translated (TNT T7 polymerase-coupled rabbit reticulocyte lysate), not purified
Consider B3, for which the “stoichiometry N” value in data set [2] is 2.

B4: σNS TriA (K11A, K13A, and R14A), in vitro expressed (natural protein)
chain: MASSLRAAISAIAADDVGQQVCPNYVMLRSSVTTKVVRNVVEYQIRTGGFFSCLAMLRPLQYAKRERLLGQRNLERISTRDILQTRDLHSLCMPTPDAPMSNHQASTMRELICSYFKVDHADGLKYIPMDERYSPSSLARLFTMGMAGLHITTEPSYKRVPIMHLAADLDCMTLALPYMITLDGDTVVPVAPTLSAEQLLDDGLKGLACMDISYGCEVDANSRPAGDQSMDSSRCINELYCEETAEAICVLKTCLVLNCMQFKLEMDDLAHNAAELDKIQMMIPFSERVFRMASSFATIDAQCFRFCVMMKDKNLKIDMRETTRLWTRSASDDSVATSSLSISLDRGRWVAADASDARLLVFPIRV
modifications: [35S]methionine-labelled
notes: nonstructural protein σNS of mammalian orthoreovirus (reovirus) strain T3D, S3 gene; same plasmid as m5; also called TriA σNS; source: in vitro translated (TNT T7 polymerase-coupled rabbit reticulocyte lysate), not purified
Take B4: the “stoichiometry N” value in data set [2] amounted to 2.

B5: σNS R14A, in vitro expressed (natural protein)
chain: MASSLRAAISKIKADDVGQQVCPNYVMLRSSVTTKVVRNVVEYQIRTGGFFSCLAMLRPLQYAKRERLLGQRNLERISTRDILQTRDLHSLCMPTPDAPMSNHQASTMRELICSYFKVDHADGLKYIPMDERYSPSSLARLFTMGMAGLHITTEPSYKRVPIMHLAADLDCMTLALPYMITLDGDTVVPVAPTLSAEQLLDDGLKGLACMDISYGCEVDANSRPAGDQSMDSSRCINELYCEETAEAICVLKTCLVLNCMQFKLEMDDLAHNAAELDKIQMMIPFSERVFRMASSFATIDAQCFRFCVMMKDKNLKIDMRETTRLWTRSASDDSVATSSLSISLDRGRWVAADASDARLLVFPIRV
modifications: [35S]methionine-labelled
notes: nonstructural protein σNS of mammalian orthoreovirus (reovirus) strain T3D, S3 gene; same plasmid as m4; also called R14A σNS; source: in vitro translated (TNT T7 polymerase-coupled rabbit reticulocyte lysate), not purified
B5: the “stoichiometry N” value in data set [2] amounted to 2.

B6: σNS R38A, in vitro expressed (natural protein)
chain: MASSLRAAISKIKRDDVGQQVCPNYVMLRSSVTTKVVANVVEYQIRTGGFFSCLAMLRPLQYAKRERLLGQRNLERISTRDILQTRDLHSLCMPTPDAPMSNHQASTMRELICSYFKVDHADGLKYIPMDERYSPSSLARLFTMGMAGLHITTEPSYKRVPIMHLAADLDCMTLALPYMITLDGDTVVPVAPTLSAEQLLDDGLKGLACMDISYGCEVDANSRPAGDQSMDSSRCINELYCEETAEAICVLKTCLVLNCMQFKLEMDDLAHNAAELDKIQMMIPFSERVFRMASSFATIDAQCFRFCVMMKDKNLKIDMRETTRLWTRSASDDSVATSSLSISLDRGRWVAADASDARLLVFPIRV
modifications: [35S]methionine-labelled
notes: nonstructural protein σNS of mammalian orthoreovirus (reovirus) strain T3D, S3 gene; same plasmid as m9; also called R38A σNS; source: in vitro translated (TNT T7 polymerase-coupled rabbit reticulocyte lysate), not purified
Take B6: in data set [2], the “stoichiometry N” value came out at 2.

B7: σNS Y25A, in vitro expressed (natural protein)
chain: MASSLRAAISKIKRDDVGQQVCPNAVMLRSSVTTKVVRNVVEYQIRTGGFFSCLAMLRPLQYAKRERLLGQRNLERISTRDILQTRDLHSLCMPTPDAPMSNHQASTMRELICSYFKVDHADGLKYIPMDERYSPSSLARLFTMGMAGLHITTEPSYKRVPIMHLAADLDCMTLALPYMITLDGDTVVPVAPTLSAEQLLDDGLKGLACMDISYGCEVDANSRPAGDQSMDSSRCINELYCEETAEAICVLKTCLVLNCMQFKLEMDDLAHNAAELDKIQMMIPFSERVFRMASSFATIDAQCFRFCVMMKDKNLKIDMRETTRLWTRSASDDSVATSSLSISLDRGRWVAADASDARLLVFPIRV
modifications: [35S]methionine-labelled
notes: nonstructural protein σNS of mammalian orthoreovirus (reovirus) strain T3D, S3 gene; same plasmid as m6; also called Y25A σNS; source: in vitro translated (TNT T7 polymerase-coupled rabbit reticulocyte lysate), not purified
In the case of B7, the “stoichiometry N” value in data set [2] was determined as 2.

B8: σNS K11A, in vitro expressed (natural protein)
chain: MASSLRAAISAIKRDDVGQQVCPNYVMLRSSVTTKVVRNVVEYQIRTGGFFSCLAMLRPLQYAKRERLLGQRNLERISTRDILQTRDLHSLCMPTPDAPMSNHQASTMRELICSYFKVDHADGLKYIPMDERYSPSSLARLFTMGMAGLHITTEPSYKRVPIMHLAADLDCMTLALPYMITLDGDTVVPVAPTLSAEQLLDDGLKGLACMDISYGCEVDANSRPAGDQSMDSSRCINELYCEETAEAICVLKTCLVLNCMQFKLEMDDLAHNAAELDKIQMMIPFSERVFRMASSFATIDAQCFRFCVMMKDKNLKIDMRETTRLWTRSASDDSVATSSLSISLDRGRWVAADASDARLLVFPIRV
modifications: [35S]methionine-labelled
notes: nonstructural protein σNS of mammalian orthoreovirus (reovirus) strain T3D, S3 gene; same plasmid as m3; also called K11A σNS; source: in vitro translated (TNT T7 polymerase-coupled rabbit reticulocyte lysate), not purified
Turning to B8, the “stoichiometry N” value in data set [2] is 2.

B9: σNS R29A, in vitro expressed (natural protein)
chain: MASSLRAAISKIKRDDVGQQVCPNYVMLASSVTTKVVRNVVEYQIRTGGFFSCLAMLRPLQYAKRERLLGQRNLERISTRDILQTRDLHSLCMPTPDAPMSNHQASTMRELICSYFKVDHADGLKYIPMDERYSPSSLARLFTMGMAGLHITTEPSYKRVPIMHLAADLDCMTLALPYMITLDGDTVVPVAPTLSAEQLLDDGLKGLACMDISYGCEVDANSRPAGDQSMDSSRCINELYCEETAEAICVLKTCLVLNCMQFKLEMDDLAHNAAELDKIQMMIPFSERVFRMASSFATIDAQCFRFCVMMKDKNLKIDMRETTRLWTRSASDDSVATSSLSISLDRGRWVAADASDARLLVFPIRV
modifications: [35S]methionine-labelled
notes: nonstructural protein σNS of mammalian orthoreovirus (reovirus) strain T3D, S3 gene; same plasmid as m7; also called R29A σNS; source: in vitro translated (TNT T7 polymerase-coupled rabbit reticulocyte lysate), not purified
With B9, the “stoichiometry N” value in data set [2] was determined as 2.

Values taken from publication PMC8406312, “Reovirus Nonstructural Protein σNS Recruits Viral RNA to Replication Organelles” (mBio, 2021).
